Data on 1 variant can be found in publication PMC2696590 (2009).

Sequences and labels used below:
B1: [^3H]-neurotensin [modified: pyroGlu at position 1; [3,11-tyrosyl-3,5-^3H(N)] (tritium on Tyr3 and Tyr11); pyroGlu at position 1; [3,11-tyrosyl-3,5-^3H(N)] (tritium on Tyr3 and Tyr11)] [not stated] / wild-type NTS1 (N-terminally truncated … (parent complex)
chain 1: not shown
chain 2: TSESDTAGPNSDLDVNTDIYSKVLVTAIYLALFVVGTVGNSVTAFTLARKKSLQSLQSTVHYHLGSLALSDLLILLLAMPVELYNFIWVHHPWAFGDAGCRGYYFLRDACTYATALNVASLSVERYLAICHPFKAKTLMSRSRTKKFISAIWLASALLAIPMLFTMGLQNRSGDGTHPGGLVCTPIVDTATVKVVIQVNTFMSFLFPMLVISILNTVIANKLTVMVHQAAEQGRVCTVGTHNGLEHSTFNMTIEPGRVQALRHGVLVLRAVVIAFVVCWLPYHVRRLMFCYISDEQWTTFLFDFYHYFYMLTNALFYVSSAINPILYNLVSANFRQVFLSTLACLCPGWRHRRKKRPTFSRKPNSMSSNHAFSTSATRETLY

This test covers variants of B1. The experiment in a line: saturation binding assay on intact E. coli cells; intact E. coli cells.
Turning to chain 2 A44L, chain 2 F316A, the Kd (in general, a measure of binding affinity in units of concentration) was determined as 0.1 nM.
